Measurements reported in patent publication US20240101645A1 (HENRY M JACKSON FOUNDATION FOR THE ADVANCEMENT OF MILITARY …, published 2024).

T1: HCoV-OC43 spike antigens (bead panel) (HCoV-OC43, UniProt P36334 14-1297)
T1 sequence: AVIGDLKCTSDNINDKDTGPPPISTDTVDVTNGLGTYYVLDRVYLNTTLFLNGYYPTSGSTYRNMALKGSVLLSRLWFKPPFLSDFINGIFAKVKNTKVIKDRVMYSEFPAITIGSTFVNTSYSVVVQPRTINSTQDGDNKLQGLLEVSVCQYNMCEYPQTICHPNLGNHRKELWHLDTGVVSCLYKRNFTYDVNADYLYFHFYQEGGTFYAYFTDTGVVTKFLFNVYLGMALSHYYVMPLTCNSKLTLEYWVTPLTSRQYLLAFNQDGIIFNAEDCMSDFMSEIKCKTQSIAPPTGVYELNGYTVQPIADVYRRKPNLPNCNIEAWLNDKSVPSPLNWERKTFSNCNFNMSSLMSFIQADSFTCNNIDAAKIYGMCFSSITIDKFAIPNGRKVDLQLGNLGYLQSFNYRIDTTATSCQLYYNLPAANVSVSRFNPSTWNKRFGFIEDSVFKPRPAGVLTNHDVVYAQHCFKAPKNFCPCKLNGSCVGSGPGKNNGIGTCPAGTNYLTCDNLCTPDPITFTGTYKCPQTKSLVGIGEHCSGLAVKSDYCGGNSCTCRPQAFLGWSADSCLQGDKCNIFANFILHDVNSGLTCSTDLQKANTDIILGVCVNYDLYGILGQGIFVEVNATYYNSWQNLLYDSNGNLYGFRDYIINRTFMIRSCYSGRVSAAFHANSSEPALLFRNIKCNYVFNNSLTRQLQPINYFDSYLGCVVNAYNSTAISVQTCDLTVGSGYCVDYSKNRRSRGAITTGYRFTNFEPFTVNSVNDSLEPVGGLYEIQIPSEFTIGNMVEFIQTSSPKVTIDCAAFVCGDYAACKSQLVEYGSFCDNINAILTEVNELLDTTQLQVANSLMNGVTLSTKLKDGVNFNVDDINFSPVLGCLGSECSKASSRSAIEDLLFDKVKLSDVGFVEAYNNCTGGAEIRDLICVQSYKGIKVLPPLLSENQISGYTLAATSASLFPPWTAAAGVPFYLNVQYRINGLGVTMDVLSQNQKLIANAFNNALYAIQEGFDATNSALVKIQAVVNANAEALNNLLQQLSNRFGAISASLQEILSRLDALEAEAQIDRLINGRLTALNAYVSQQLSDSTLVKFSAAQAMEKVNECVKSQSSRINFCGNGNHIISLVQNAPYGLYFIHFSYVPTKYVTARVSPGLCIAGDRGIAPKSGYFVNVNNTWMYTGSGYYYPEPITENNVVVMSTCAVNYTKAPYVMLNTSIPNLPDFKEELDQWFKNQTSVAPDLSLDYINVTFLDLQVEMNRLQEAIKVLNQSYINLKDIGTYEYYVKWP

T2: HCoV-229E spike antigens (bead panel) (HCoV-229E, UniProt P15423 16-1115)
T2 sequence: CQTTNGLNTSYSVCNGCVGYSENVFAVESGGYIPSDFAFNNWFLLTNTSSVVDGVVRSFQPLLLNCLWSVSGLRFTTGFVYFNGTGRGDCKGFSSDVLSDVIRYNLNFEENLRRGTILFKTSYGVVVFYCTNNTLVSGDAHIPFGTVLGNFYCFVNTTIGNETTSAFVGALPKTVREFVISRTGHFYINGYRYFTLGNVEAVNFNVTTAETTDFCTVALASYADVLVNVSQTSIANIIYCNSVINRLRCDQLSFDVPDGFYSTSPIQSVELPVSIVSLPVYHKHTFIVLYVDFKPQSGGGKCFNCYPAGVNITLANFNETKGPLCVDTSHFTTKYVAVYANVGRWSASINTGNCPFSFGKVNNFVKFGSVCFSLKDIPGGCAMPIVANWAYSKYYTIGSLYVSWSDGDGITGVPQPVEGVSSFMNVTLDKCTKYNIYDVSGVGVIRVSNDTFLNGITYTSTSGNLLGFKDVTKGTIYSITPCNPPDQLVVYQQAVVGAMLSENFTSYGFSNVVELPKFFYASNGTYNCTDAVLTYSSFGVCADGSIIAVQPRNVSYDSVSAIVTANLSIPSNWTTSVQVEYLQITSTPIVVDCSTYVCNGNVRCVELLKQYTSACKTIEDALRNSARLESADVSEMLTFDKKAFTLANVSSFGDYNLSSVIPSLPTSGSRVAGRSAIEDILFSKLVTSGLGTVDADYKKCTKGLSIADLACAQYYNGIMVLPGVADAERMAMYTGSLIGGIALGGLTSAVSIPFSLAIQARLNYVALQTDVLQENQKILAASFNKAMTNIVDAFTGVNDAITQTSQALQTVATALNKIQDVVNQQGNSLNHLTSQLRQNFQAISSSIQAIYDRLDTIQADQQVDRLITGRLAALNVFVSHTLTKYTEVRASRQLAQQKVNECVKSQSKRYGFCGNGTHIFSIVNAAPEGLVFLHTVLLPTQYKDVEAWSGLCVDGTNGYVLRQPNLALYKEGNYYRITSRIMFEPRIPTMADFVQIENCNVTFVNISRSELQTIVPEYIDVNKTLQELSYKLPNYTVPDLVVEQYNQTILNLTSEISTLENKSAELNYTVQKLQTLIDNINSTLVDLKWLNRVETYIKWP


How the values were obtained:
[1] = molecular target: T1, HCoV-OC43 spike antigens (bead panel); experiment: multiplex bead assay
[2] = molecular target: T2, HCoV-229E spike antigens (bead panel); experiment: multiplex bead assay

| Binder | binding result [1] | binding result [2] |
| --- | --- | --- |
| COV_2215 (antibody, V domains shown, human IgG1) VH: EVQLVESGGGLVKPGGSLRLSCAASGFTFSHAWMSWVRQAPGKGLEWVGRIKSKTDGGTADYAAPVKGRFTISRDDSKNTLYLQMNSLKTEDTAVYYCATIRYYYDSSAYLNDAFDIWGQGTMVTVSS VL: SYELTQPPSVSVSPGQTARITCSGDALPKKYAYWYQQKSGQAPVLVIYEDSKRPSGIPERFSGSSSGTMATLTISGAQVEDEADYYCYSTDSSGNHRVFAGGTKLTVLG | no binding | no binding |
| COV_1177 (antibody, V domains shown, human IgG1) VH: QVQLVESGGGVVQPGRSLRLSCAASGFTFSSYGMHWVRQAPGKGLEWVAVIWYDGSNKYYADSVKGRFTISRDNSKNTLYLQMNSLRAEDTAVYYCARDPLGAVAGYFDYWGQGTLVTVSS VL: SYVLTQPPSVSVAPGQTARITCGGNNIGSKSVHWYQQKPGQAPVLVVYDDSDRPSGIPERFSGSNSGNTATLTISRVEAGDEADYYCQVWDSSSDHHWVFGGGTKLTVLG | no binding | no binding |
| COV_3129 (antibody, V domains shown, human IgG1) VH: QVQLQQWGAGLLKPSDTLSLTCAANGGGSFSGYYLGYIRQSPGKGLEWIGEINHNGGTNYNPSLKSRVTISGDTSKNQFSLKLSSVTAADTAIYYCARSRDSSLGDAVWYEYWGQGTLITVSS VL: EIVLTQSPATLSLSPGERATLSCRASQSVDIYLAWYQQRPGQAPRLLISDASKRATGVPARFSGSGSGTDFTLTINSLEPEDFAIYYCQQRRDWPINFGQGTRLEIKR | no binding | no binding |
| COV_2032 (antibody, V domains shown, human IgG1) VH: EVQLVESGGGLVQPGGSLRLSCAASGFTFTTYWMHWVRQAPGKGLVWVSRIKTDGSSTNYADSVKGRFTISRDNAKNMLYLQMNSLRAEDTAVYYCAREGPVSIVYFDYWGQGTLVTVSS VL: not shown | no binding | no binding |
| COV_2169 (antibody, V domains shown, human IgG1) VH: EVQLVESGGGVVQPGRSLRLSCAASGFTFSRYAMHWVRQAPGKGLEWVAVISYEGSNKYYADSVKGRFTISRNNSNNTLSLQMNSLRPDDTAVYYCVRSGGHYFDAFDLWGQGTMVTVSS VL: EIVLTQSPGTLSLSPGERATLSCRASQSVSRNYVAWYQQKPGQAPRLLIYGASSRATGIPDRFSGSGSGTDFTLTISRLEPEDFALYYCQQYGSSYTFGQGTKLEIKR | no binding | no binding |
| COV_2205 (antibody, V domains shown, human IgG1) VH: EVQLVESGGGLVKPGGSLRLSCAASGFTFSDYYMIWIRQAPGEGLEWVSYISSRSSYTNYADSVKGRFTISRDNARNSLYLQMNSLRAEDTAVYYCARGQHDLLTGYYSWAYFDYWGQGTLVTVSS VL: not shown | no binding | no binding |
| COV_2125 (antibody, V domains shown, human IgG1) VH: EVQLVESGGGVVQPGRSLRLSCAASGFTFSSYGMHWVRQAPGKGLEWVAVISYDGSNKYYADSVKGRFTISRDNSKNTLSLQMNSLRPEDTAVYYCAKDSPYYYDSSGYYPGYFQDWGQGSLVTVSS VL: DIQMTQSPSSLSASIGDRVTITCRASQTISDYLNWYQQKPGKAPNLLIYAASTLQSGVPSRFSGSGSGTDFTLTISSLQPEDFATYYCQQSYITPRTFGQGTKVEIK | no binding | no binding |
| COV_1184 (antibody, V domains shown, human IgG1) VH: QVQLQQWGAGLLKPSETLSLTCAVYGGSFSGYYWSWIRQPPGKGLEWIGEINHSGNTTYNPSLKSRVTISVDTSKNQFSLKLSSVTAADTAVYYCARGLVITYYYDSSGKPFDPWGQGTLVTVSS VL: not shown | no binding | no binding |
| COV_3069 (antibody, V domains shown, human IgG1) VH: EVQLVESGGGLVKPGGSLRLSCAASGFTFGSYTMNWVRQAPGKGLEWVSSIDTTSSSIYYADSLKGRFAISRDSAKNSLYLQMNRLRAEDTAVYYCARGNGHSYDSSGYHYGMYFDYWGQGTLVTVSS VL: DIQMTQSPSTLSASVGDRVTITCRASQSISRWLAWYQQKPGKAPKLLIYEVSSLENGVPSRFSGSRSGTEFTLTISSLQPDDFAIYYCQQYNTYSRTFGQGTKVEIKR | no binding | no binding |
